Measurements as given in US20030166021A1 (WISTAR INSTITUTE OF ANATOMY AND BIOLOGY, published 2003).
Ends that are not written are not given here.

What was measured:
[1] = target: T1, LexA-MB1 fusion protein (human c-Myc Myc box 1 peptide, amino acids 47-62) (human); experiment: yeast two hybrid, mating test with LexA baits
T1 construct: also called MB1 bait; lexA-MB1 peptide construct

[2] = target: T2, small GTP-binding protein RhoB test bait (UniProt P62745 1-196, limits assumed); experiment: yeast two hybrid mating test with negative control baits
T2 construct: Negative control bait in the two hybrid mating test
T2 sequence (P62745 whole entry): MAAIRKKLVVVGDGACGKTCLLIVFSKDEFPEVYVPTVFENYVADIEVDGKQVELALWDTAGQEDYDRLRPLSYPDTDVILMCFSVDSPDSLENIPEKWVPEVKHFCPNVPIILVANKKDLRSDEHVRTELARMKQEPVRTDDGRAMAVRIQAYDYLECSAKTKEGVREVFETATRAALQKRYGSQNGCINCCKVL

[3] = target: T3, protein kinase C (PKC) peptide FTRHPPVLTPPDQEVI test bait (rat, also: fused to LexA DNA binding domain (order, linker not given here)); experiment: as above
T3 construct: Negative control bait in the two hybrid mating test; also called peptide derived from rat protein kinase Cβ2
T3 chain: FTRHPPVLTPPDQEVI

Max = Max (UniProt P61244 1-160, limits assumed); experiment: GST pull-down
Sequence of Max (P61244 whole entry): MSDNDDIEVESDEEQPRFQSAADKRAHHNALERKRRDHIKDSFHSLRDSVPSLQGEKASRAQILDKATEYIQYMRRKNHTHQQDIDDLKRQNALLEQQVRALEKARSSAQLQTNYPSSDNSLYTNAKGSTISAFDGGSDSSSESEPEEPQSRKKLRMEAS

cell cycle protein p107 = target: T4, cell cycle protein p107 (UniProt P28749 1-1068, limits assumed); experiment: GST pull-down
T4 sequence (looked up): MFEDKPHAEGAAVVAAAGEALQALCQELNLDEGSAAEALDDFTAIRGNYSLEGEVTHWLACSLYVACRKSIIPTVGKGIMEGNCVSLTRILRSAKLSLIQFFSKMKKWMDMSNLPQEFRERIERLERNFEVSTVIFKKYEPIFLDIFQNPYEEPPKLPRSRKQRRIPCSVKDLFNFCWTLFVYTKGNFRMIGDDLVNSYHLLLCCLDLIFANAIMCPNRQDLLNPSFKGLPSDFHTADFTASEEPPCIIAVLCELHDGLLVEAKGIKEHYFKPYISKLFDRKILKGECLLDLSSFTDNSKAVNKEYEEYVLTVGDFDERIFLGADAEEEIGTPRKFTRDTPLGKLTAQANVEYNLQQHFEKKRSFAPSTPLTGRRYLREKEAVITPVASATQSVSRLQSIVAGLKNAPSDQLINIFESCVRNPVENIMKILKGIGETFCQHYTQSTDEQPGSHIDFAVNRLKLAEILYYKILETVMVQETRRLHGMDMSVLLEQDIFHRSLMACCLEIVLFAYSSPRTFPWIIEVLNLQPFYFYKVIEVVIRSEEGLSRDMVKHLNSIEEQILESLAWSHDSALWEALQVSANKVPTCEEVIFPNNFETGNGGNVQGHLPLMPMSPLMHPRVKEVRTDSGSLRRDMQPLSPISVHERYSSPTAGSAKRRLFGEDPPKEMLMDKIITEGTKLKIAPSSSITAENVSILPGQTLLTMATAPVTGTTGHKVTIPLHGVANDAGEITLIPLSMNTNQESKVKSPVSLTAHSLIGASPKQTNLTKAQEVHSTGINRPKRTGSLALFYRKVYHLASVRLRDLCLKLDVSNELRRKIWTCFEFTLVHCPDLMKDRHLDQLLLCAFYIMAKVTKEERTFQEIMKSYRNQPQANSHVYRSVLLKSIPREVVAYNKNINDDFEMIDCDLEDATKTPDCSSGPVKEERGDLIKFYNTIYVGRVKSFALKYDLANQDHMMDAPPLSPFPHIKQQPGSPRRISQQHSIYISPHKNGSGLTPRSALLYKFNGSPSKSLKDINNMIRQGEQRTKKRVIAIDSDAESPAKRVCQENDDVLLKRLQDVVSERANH

[4] = target: transcription factor YY 1 (UniProt P25490 1-414, limits assumed); experiment: GST pull-down
Sequence of transcription factor YY 1 (P25490 whole entry): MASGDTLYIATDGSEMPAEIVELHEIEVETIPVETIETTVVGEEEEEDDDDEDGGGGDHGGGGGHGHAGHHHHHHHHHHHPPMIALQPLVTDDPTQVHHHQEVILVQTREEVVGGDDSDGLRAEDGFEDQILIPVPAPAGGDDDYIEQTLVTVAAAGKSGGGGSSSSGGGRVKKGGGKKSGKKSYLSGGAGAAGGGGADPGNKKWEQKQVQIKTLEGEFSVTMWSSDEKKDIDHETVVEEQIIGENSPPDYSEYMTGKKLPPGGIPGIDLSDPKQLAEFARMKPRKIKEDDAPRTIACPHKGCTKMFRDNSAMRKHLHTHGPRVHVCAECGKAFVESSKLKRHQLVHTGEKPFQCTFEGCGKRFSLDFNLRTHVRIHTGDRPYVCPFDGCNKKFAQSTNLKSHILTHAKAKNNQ

[5] = target: extracellular protein PAI-1 (UniProt P05121 24-402, limits assumed); experiment: GST pull-down
Sequence of extracellular protein PAI-1 (P05121 24-402 limits assumed): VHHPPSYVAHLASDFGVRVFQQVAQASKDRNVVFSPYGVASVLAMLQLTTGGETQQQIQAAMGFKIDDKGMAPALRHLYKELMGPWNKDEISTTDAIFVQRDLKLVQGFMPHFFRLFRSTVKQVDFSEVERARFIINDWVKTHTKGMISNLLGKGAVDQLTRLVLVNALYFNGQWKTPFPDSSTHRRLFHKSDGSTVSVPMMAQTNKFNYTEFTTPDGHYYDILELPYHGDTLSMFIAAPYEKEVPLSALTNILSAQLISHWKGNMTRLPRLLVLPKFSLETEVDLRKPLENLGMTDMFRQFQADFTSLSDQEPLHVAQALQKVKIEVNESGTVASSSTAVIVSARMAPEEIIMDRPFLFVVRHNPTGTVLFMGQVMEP

[6] = target: small GTP-binding protein RhoB (tested for GST-ATG99 interaction) (UniProt P62745 1-196, limits assumed); experiment: GST pull-down
Sequence of small GTP-binding protein RhoB (tested for GST-ATG99 interaction) (P62745 whole entry): as the sequence (P62745 whole entry) above

[7] = target: T5, c-Myc with both MB1 (49-101) and MB2 (120-140) deletions (human, UniProt P01106 1-48; P01106 102-119; P01106 141-439); experiment: GST pull-down of 35S-labelled IVT protein
T5 construct: range 1-48; also called CMV Hm subclone containing both deletions
T5 sequence (P01106 other isoform, or with tags, fused parts or gaps limits assumed): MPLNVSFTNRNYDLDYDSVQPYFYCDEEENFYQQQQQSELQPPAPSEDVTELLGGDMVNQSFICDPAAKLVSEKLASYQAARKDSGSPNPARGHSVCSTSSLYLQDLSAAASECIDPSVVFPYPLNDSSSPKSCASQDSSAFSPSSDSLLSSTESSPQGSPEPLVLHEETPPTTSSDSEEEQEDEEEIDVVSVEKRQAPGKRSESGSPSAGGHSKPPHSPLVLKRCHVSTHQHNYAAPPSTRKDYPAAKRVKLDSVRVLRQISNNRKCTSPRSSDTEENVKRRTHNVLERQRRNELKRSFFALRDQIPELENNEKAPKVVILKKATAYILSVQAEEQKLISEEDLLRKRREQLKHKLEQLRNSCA

[8] = target: T6, SV40 large T antigen (vector pTag) (SV40, UniProt P03070 1-708); experiment: GST pull-down of 35S-labelled IVT protein
T6 construct: 35S-labelled in vitro translated protein

USF (vector CMV-USF) = target: T7, USF (vector CMV-USF) (UniProt P22415 1-310, limits assumed); experiment: GST pull-down of 35S-labelled IVT protein
T7 construct: 35S-labelled in vitro translated protein
T7 sequence (P22415 whole entry): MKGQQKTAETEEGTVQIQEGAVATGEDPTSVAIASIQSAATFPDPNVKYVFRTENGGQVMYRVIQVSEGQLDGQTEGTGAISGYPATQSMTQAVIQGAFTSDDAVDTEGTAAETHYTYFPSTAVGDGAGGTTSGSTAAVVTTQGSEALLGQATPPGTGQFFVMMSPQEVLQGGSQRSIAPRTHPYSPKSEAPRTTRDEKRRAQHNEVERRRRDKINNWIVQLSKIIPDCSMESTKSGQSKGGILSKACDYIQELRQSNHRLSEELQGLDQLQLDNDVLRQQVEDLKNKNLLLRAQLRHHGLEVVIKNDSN

Binder	binding result [1]	binding result [2]	binding result [3]	binding result (Max)	binding result (cell cycle protein p107)	binding result [4]	binding result [5]	binding result [6]	binding result [7]	binding result [8]	binding result (USF (vector CMV-USF))
murine Bin1 135 amino acid polypeptide (clone #99 ORF) as VP16 fusion from the two hybrid cDNA library (other, Prey of the yeast two hybrid screen) EIRVNHEPEPASGASPGAAIPKSPSQPAEASEVVGGAQEPGETAASEATSSSLPAVVVETFSATVNGAVEGSAGTGRLDLPPGFMFKVQAQHDYTATDTDELQLKAGDVVLVIPFQNPEEQDEGWLMGVKESD	binds	no binding	no binding								
GST-ATG99 polypeptide (glutathione-S-transferase fusion of the 135 aa murine Bin1 polypeptide) (other, Expressed in E. coli, purified on glutathione-Sepharose; not shown: glutathione-S-transferase of vector pGEX-2T (Pharmacia); 15 amino acid N-terminal extension with initiator methionine (3 amino acids from E47 and 12 amino acids from VP16); lett) EIRVNHEPEPASGASPGAAIPKSPSQPAEASEVVGGAQEPGETAASEATSSSLPAVVVETFSATVNGAVEGSAGTGRLDLPPGFMFKVQAQHDYTATDTDELQLKAGDVVLVIPFQNPEEQDEGWLMGVKESD				no binding	no binding	no binding	no binding	no binding	no binding	no binding	no binding
